Here are results for 1 molecule from patent US20140072592A1.

Ends that are not written are not given here.

In this assay the target is anti-SPAPP monoclonal antibody CM61. Nature of the assay: competition EIA: SPAPP in 83% human plasma competes with plate-coated SPAPP for 10 ng/ml CM61.

B1: amyloid precursor protein signal peptide (SPAPP), …-COOH (peptide)
peptide: MLPGLALLLLAAWTARA-OH
For the molecule B1, the lowest antigen concentration detectable by competition was above 200 pg/mL.
